Results reported in paper PMC3796545, “Protein-Protein Interactions as a Strategy towards Protein-Specific Drug Design: The Example of Ataxin-1” (PLoS ONE, 2013).
Peptide text beside a SMILES is read from it.

T1: ATX1 AXH (residues A567–K689 of human ATX1) (Homo sapiens, UniProt P54253)
T1 construct: Recombinant ATX1 AXH (residues A567–K689 of human ATX1); His6-GST (N, cleaved yes); made in house; host or cells: E. coli BL21(DE3)pLysS
T1 sequence (P54253 566-688 limits assumed): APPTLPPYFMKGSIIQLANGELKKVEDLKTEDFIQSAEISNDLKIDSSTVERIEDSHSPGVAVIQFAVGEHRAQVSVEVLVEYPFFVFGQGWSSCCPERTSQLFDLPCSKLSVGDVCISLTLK

T2: ATX1 AXH (residues A567-K689 of human ATX1) (human)
T2 chain: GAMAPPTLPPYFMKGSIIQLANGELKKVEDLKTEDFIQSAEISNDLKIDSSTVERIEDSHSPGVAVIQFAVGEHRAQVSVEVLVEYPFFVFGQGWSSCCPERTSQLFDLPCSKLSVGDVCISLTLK


Assays:
[1] = molecular target: ATX1 AXH (residues A567-K689 of human ATX1) (human); test: NMR relaxation (T1, T2, rotational correlation time); free AXH, before addition of the peptide; 27°C, 600 MHz
[2] = molecular target: T1, ATX1 AXH (residues A567–K689 of human ATX1); test: ITC binding of CIC peptides to ATX1 AXH; details: 25°C, 50 mM Tris-HCl pH 7, 50 mM NaCl, 2 mM TCEP, 0.041 mM AXH in cell, 0.410 mM peptide in syringe, averages of three measurements, read-out: dissociation constant (Kd)
Description: Binding affinities of AXH with CIC ligands were measured at 25°C by a MicroCal Omega VP-ITC (MicroCal Inc., Northampton, USA). Both protein and peptides buffers were 50 mM Tris-HCl pH 7, 50 mM NaCl, 2 mM TCEP. Solutions of 0.041 mM AXH in the cell were titrated by injections of a total of 283 µl of 0.410 mM peptide in the syringe in 21 aliquots. Data were processed with the software MicroCal Origin version 5.0 provided by the manufacturer. All dissociation constants were averages of three measurements.

[3] = molecular target: T2, ATX1 AXH (residues A567-K689 of human …); test: ITC
[4] = molecular target: ATX1 AXH (residues A567-K689 of human ATX1) (human); test: ITC; 0.041 mM AXH in the cell, 0.410 mM peptide in the syringe, 21 aliquots; 25°C; 50 mM Tris-HCl pH 7, 50 mM NaCl, 2 mM TCEP; single-site model; averages of three measurements
Target sequence in this assay (P54253 567-689): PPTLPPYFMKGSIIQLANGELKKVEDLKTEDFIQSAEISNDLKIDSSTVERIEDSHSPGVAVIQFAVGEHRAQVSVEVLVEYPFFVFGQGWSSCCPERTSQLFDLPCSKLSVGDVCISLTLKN

Kd [2] [nM] | Kd [3] [nM] | Molecule | further results
– | – | ATX1 AXH (residues A567-K689 of human ATX1) (domain or fragment) | stoichiometry N [1]: 2
20 | – | CC(C)C[C@H](NC(=O)[C@H](Cc1ccccc1)NC(=O)[C@@H]1CCCN1C(=O)[C@@H](NC(=O)[C@H](CC(C)C)NC(=O)[C@H](CO)NC(=O)[C@H](Cc1c[nH]cn1)NC(=O)[C@H](Cc1c[nH]c2ccccc12)NC(=O)[C@@H]1CCCN1C(=O)[C@H](Cc1ccccc1)NC(=O)[C@@H](N)C(C)C)C(C)C)C(=O)NCC(=O)N1CCC[C@H]1C(=O)N[C@@H](CO)C(=O)N[C@@H](CCC(N)=O)C(=O)O [A45] (H-VFPWHSLVPFLGPSQ-OH) | –
50 | – | CC(C)C[C@H](NC(=O)[C@H](CO)NC(=O)[C@H](Cc1c[nH]cn1)NC(=O)[C@H](Cc1c[nH]c2ccccc12)NC(=O)[C@@H]1CCCN1C(=O)[C@H](Cc1ccccc1)NC(=O)[C@@H](N)C(C)C)C(=O)N[C@H](C(=O)N1CCC[C@H]1C(=O)N[C@@H](Cc1ccccc1)C(=O)N[C@@H](C)C(=O)N[C@@H](C)C(=O)N1CCC[C@H]1C(=O)N[C@@H](CO)C(=O)N[C@@H](CCC(N)=O)C(=O)O)C(C)C [L44] (H-VFPWHSLVPFAAPSQ-OH) | –
30 | – | CC(C)C[C@H](NC(=O)[C@H](Cc1ccccc1)NC(=O)[C@@H]1CCCN1C(=O)[C@@H](NC(=O)[C@H](CC(C)C)NC(=O)[C@H](CO)NC(=O)[C@H](Cc1c[nH]cn1)NC(=O)[C@H](Cc1c[nH]c2ccccc12)NC(=O)[C@@H]1CCCN1C(=O)[C@H](C)NC(=O)[C@@H](N)C(C)C)C(C)C)C(=O)N[C@@H](C)C(=O)N1CCC[C@H]1C(=O)N[C@@H](CO)C(=O)N[C@@H](CCC(N)=O)C(=O)O [F35] (H-VAPWHSLVPFLAPSQ-OH) | –
2600 | – | CC(C)C[C@H](NC(=O)[C@H](Cc1ccccc1)NC(=O)[C@@H]1CCCN1C(=O)[C@@H](NC(=O)[C@H](CC(C)C)NC(=O)[C@H](CO)NC(=O)[C@H](Cc1c[nH]cn1)NC(=O)[C@H](C)NC(=O)[C@@H]1CCCN1C(=O)[C@H](Cc1ccccc1)NC(=O)[C@@H](N)C(C)C)C(C)C)C(=O)N[C@@H](C)C(=O)N1CCC[C@H]1C(=O)N[C@@H](CO)C(=O)N[C@@H](CCC(N)=O)C(=O)O [W37] (H-VFPAHSLVPFLAPSQ-OH) | –
40 | – | CC(C)C[C@H](NC(=O)[C@H](Cc1ccccc1)NC(=O)[C@H](C)NC(=O)[C@@H](NC(=O)[C@H](CC(C)C)NC(=O)[C@H](CO)NC(=O)[C@H](Cc1c[nH]cn1)NC(=O)[C@H](Cc1c[nH]c2ccccc12)NC(=O)[C@@H]1CCCN1C(=O)[C@H](Cc1ccccc1)NC(=O)[C@@H](N)C(C)C)C(C)C)C(=O)N[C@@H](C)C(=O)N1CCC[C@H]1C(=O)N[C@@H](CO)C(=O)N[C@@H](CCC(N)=O)C(=O)O [P42] (H-VFPWHSLVAFLAPSQ-OH) | –
8000 | – | CC(C)C[C@H](NC(=O)[C@H](Cc1ccccc1)NC(=O)[C@@H]1CCCN1C(=O)[C@@H](NC(=O)[C@H](CC(C)C)NC(=O)[C@H](CO)NC(=O)[C@H](Cc1c[nH]cn1)NC(=O)[C@H](Cc1c[nH]c2ccccc12)NC(=O)[C@@H]1CCCN1)C(C)C)C(=O)N[C@@H](C)C(=O)N1CCC[C@H]1C(=O)N[C@@H](CO)C(=O)N[C@@H](CCC(N)=O)C(=O)O [CICp] (H-PWHSLVPFLAPSQ-OH) | –
– | 20 | VFPWHSLVPFLAASQ [L-CICp with P46 mutated to alanine] | –
– | 70 | VFPWHSLAPFLAPSQ [L-CICp with V41 mutated to alanine] | –
– | 2600 | VFPAHSLVPFLAPSQ [L-CICp with W37 mutated to alanine] | fold change of Kd against wild-type L-CICp [4]: 100 fold
– | 500 | VFPWHSAVPFLAPSQ [L-CICp with L40 mutated to alanine] | fold change of Kd against wild-type L-CICp [4]: 10 fold
– | 60 | VFPWHSLVPALAPSQ [L-CICp with F43 mutated to alanine] | –
– | 30 | VAPWHSLVPFLAPSQ [L-CICp with F35 mutated to alanine] | –
– | 40 | VFAWHSLVPFLAPSQ [L-CICp with P36 mutated to alanine] | –
– | 50 | VFPWHSLVPFAAPSQ [L-CICp with L44 mutated to alanine] | –
– | 20 | AFPWHSLVPFLAPSQ [L-CICp with V34 mutated to alanine] | –
– | – | PWHSLVPFLAPSQ [CICp] | Kd [4]: 8000 nM
– | 10 | VFPWHALVPFLAPSQ [L-CICp with S39 mutated to alanine] | –
– | 30 | VFPWHSLVPFLAPSQ [L-CICp] | Kd [4]: 33 nM
– | 50 | VFPWASLVPFLAPSQ [L-CICp with H38 mutated to alanine] | –
– | 40 | VFPWHSLVAFLAPSQ [L-CICp with P42 mutated to alanine] | –

Molecule | Kd [2] [nM] | Kd [3] [nM] | further results
CC(C)C[C@H](NC(=O)[C@H](C)NC(=O)[C@H](Cc1c[nH]cn1)NC(=O)[C@H](Cc1c[nH]c2ccccc12)NC(=O)[C@@H]1CCCN1C(=O)[C@H](Cc1ccccc1)NC(=O)[C@@H](N)C(C)C)C(=O)N[C@H](C(=O)N1CCC[C@H]1C(=O)N[C@@H](Cc1ccccc1)C(=O)N[C@@H](CC(C)C)C(=O)N[C@@H](C)C(=O)N1CCC[C@H]1C(=O)N[C@@H](CO)C(=O)N[C@@H](CCC(N)=O)C(=O)O)C(C)C [S39] (H-VFPWHALVPFLAPSQ-OH) | 10 | – | –
